From patent publication US11224662B2, “Methods and therapeutics comprising ligand-targeted ELPs” (priority 2012, dated 2022) come the findings set out here.

Data set [1] can be described thus: Temperature-dependent optical density (turbidity) of ELP fusion peptides. It counts as physicochemical. The note with it: 25 μM in PBS; for Transition Temperature T1: first phase transition; for Transition Temperature T1 / Transition Temperature T2: optical density; for Transition Temperature T2: second phase transition. The procedure:
(§1) To explore the temperature-dependent phase behavior of the ELPs, optical density and hydrodynamic radius were observed over a range of temperatures. Knob-S96, S48148 and knob-S48148 were diluted to 25 μM in PBS on ice and the absorbance at 350 nm was monitored with a DU800 UV-Vis spectrophotometer (Beckman Coulter, Brea, Calif.) at a temperature gradient of 1° C./minute. […] Then 90 μL sample of was transferred into a 384 well microplate and covered with 20 μL mineral oil. The microplate and mineral oil were pre-chilled at 4° C. at least for 1 hour. The microplate was centrifuged at 4° C. to remove air bubbles from samples before and after addition of mineral oil. Then the sample was measured in a DynaPro plate reader (Wyatt Inc., Santa Barbara, Calif.) at temperature intervals of 1° C. The resulting hydrodynamic radii were collected and analyzed by Dynamics (Wyatt Inc., Santa Barbara, Calif.).

The test system of data set [2] is transformed mouse hepatocytes. Kind of data set: Live cell uptake of rhodamine-conjugated ELP/knob-ELP in hepatocytes. It is filed as cell-based. The following applies: 10 μM rhodamine-labeled, 30 minutes at 37° C., confocal microscopy, LYSOTRACKER green. The procedure: To track cellular uptake, the ELPs S48148 and knob-S48148 were conjugated with a detectable label, NHS-Rhodamine (Thermo Fisher Scientific Inc, Rockford, Ill.) via covalent modification of primary amines at the amino end of the peptide. For S48148, the only available amine is at the amino terminus; however, knob-S48148 has an additional 11 lysine residues that may be sites of modification. The conjugation was performed in 100 mM borate buffer for 2 hours at 4° C., and the conjugated ELP was separated by size exclusion chromatography on a PD10 desalting column (GE Healthcare, Piscataway, N.J.).
To observe uptake into mouse hepatocytes, cells were cultured on 35 mm glass coverslip-bottomed dishes with medium [(DMEM (4.5 g/L) containing 10% fetal bovine serum, g/ml insulin, and 0.02 [μg/ml epidermal growth factor]. Uptake studies were conducted when hepatocytes reached 70% confluence. After washing with warm fresh medium, hepatocytes were cultured in medium containing 10 μM of either S48148 or knob-S48148 conjugated with rhodamine, and 75 nM LYSOTRACKER® green. After 30 minutes incubation at 37° C., the cells were rinsed with warm fresh medium to remove the free knob-ELP/ELP in the medium. Next cells were incubated with 75 nM LYSOTRACKER® green in a 37° C. incubation chamber. […]

The next data set has as its system LG of BALB/c mice. As to the kind of experiment: In vivo retention in the lacrimal gland after intra-lacrimal gland injection. The following applies: 5 μL of 50 μM rhodamine-labelled, 1 h, compared with untargeted S48I48. More on the design: species or system mouse. On the procedure:
Twelve-week-old male BALB/c mice were administered, by intra-lacrimal gland injection, 5 μL of 50 μM rhodamine-labelled S48148 or rhodamine-labelled knob-S48148 (red) combined with 50 μg CF-dextran (10 kD, green). After 1 h, mice were euthanized and the glands were retrieved, embedded into the O.C.T. compound (Tissue-Tek), and frozen on dry ice. The frozen tissue blocks were cut into 10 μm thick sections and imaged using confocal fluorescence microscopy. The white arrows indicate endocytosed S48148 or knob-S48148 nanoparticles. The bar represents 10 μm. […] For this experiment, the mice were euthanatized by intraperitoneal injection with 55 mg ketamine and 14 mg xylazine per kilogram of body weight, followed by cervical dislocation. 5 μL of 50 μM rhodamine labelled knob-S48148 or S48148 was injected into the lacrimal glands of mice. After 60 minutes, the tear was collected from one eye of mouse by adding Carbachol into the related lacrimal gland. For another gland, it was removed after the tear collection was done at the first eye. After removal, LGs were snap frozen and stored on the dry ice. The frozen glands were cut into 10 μm thick sections and mounted on glass slides. Then the sections were examined with a confocal laser scanning microscope (LSM) at excitation wavelengths of 488 and 534 nm.

The target in data set [3] is T1, coxsackie adenovirus receptor (CAR) (Mus musculus, UniProt P97792).
T1 construct: This study was carried out in transformed mouse hepatocytes because of the high expression of CAR; endogenous in cells; host or cells: transformed mouse hepatocyte cell line
T1 sequence (P97792 20-365): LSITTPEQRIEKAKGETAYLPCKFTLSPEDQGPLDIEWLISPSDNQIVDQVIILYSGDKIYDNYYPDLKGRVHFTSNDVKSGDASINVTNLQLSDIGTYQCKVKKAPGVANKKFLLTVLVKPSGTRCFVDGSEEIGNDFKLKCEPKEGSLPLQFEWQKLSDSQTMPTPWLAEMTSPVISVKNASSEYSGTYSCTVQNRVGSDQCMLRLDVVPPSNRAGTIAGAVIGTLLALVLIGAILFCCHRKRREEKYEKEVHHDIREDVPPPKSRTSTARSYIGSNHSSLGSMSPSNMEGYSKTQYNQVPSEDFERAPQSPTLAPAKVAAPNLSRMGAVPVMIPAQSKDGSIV
Kind of data set: Competitive binding and uptake with anti-mouse CAR antibody in hepatocytes. It counts as cell-based. The note with it: 20 μg/mL anti-mouse CAR antibody 30 minutes at 37° C., then 10 μM rhodamine-conjugated knob-S48I48. On the procedure:
After confirming that the goat anti-mouse CAR antibody has a high affinity with the mouse hepatocytes, the anti-mouse CAR antibody (0.2 mg/mL) was diluted with warm medium 10-fold and incubated with the hepatocytes for 30 minutes at 37° C. Knob-S48148 conjugated with rhodamine was then added to the medium at a concentration of 10 μM. After 30 minutes incubation with knob-S48148 and 75 nM LYSOTRACKER® green, the hepatocytes were rinsed, then incubated in fresh warm medium with 75 nM LYSOTRACKER® green and imaged as described above.

Data set [4] is described as follows: Dynamic light scattering of ELP nanoparticles. It counts as physicochemical. The procedure: as §1
In data set [5] the test system is lacrimal gland acinar cells (LGACs). As to the kind of experiment: Suppression of transcytosis by Myosin Vb tail overexpression in LGACs. The following applies: 30 μM Cy5-conjugated, 60 minutes at 37° C. It is filed as cell-based, rabbit. On the procedure: To obtain the indication of lumen area of LGACs, the cells were also pre-infected with Adenovirus EGFP-actin and helper virus at a 37° C. incubator with 5% CO2 overnight. To avoid the clash of fluorescence colours, the knob-S48148 used in transcytosis inhibition was conjugated with Cy5. The LGACs were grown on 35 mm glass-bottomed dishes for two days. Adenovirus EGFP-actin and helper virus with or without adenovirus mCherry Myosin Vb tail were added into dishes and cultured overnight. After waiting for expression of fluorescence, confocal microscopy was used to make sure adenovirus mCherry-myosin Vb tail and adenovirus EGFP-actin grow in LGACs. On the third day, knob-S48148 conjugated with Cy5 was then mixed with the cold medium at a concentration of 30 μM, warmed to 37° C. and then added into dishes. After 60 minutes incubation in a 37° C. incubator with 5% CO2, LGACs were thoroughly rinsed with fresh warm medium then immediately imaged under a Zeiss LSM 510 Meta confocal microscope system, which is equipped with argon and red and green He—Ne lasers and mounted on a vibration-free table. All images were captured under the confocal microscope and processed using ImageJ (NIH, USA).

B1: knob-G(VPGSG)48(VPGIG)48Y (SEQ ID. NO: 10) (protein)
chain: GVPGSGVPGSGVPGSGVPGSGVPGSGVPGSGVPGSGVPGSGVPGSGVPGSGVPGSGVPGSGVPGSGVPGSGVPGSGVPGSGVPGSGVPGSGVPGSGVPGSGVPGSGVPGSGVPGSGVPGSGVPGSGVPGSGVPGSGVPGSGVPGSGVPGSGVPGSGVPGSGVPGSGVPGSGVPGSGVPGSGVPGSGVPGSGVPGSGVPGSGVPGSGVPGSGVPGSGVPGSGVPGSGVPGSGVPGSGVPGSGVPGIGVPGIGVPGIGVPGIGVPGIGVPGIGVPGIGVPGIGVPGIGVPGIGVPGIGVPGIGVPGIGVPGIGVPGIGVPGIGVPGIGVPGIGVPGIGVPGIGVPGIGVPGIGVPGIGVPGIGVPGIGVPGIGVPGIGVPGIGVPGIGVPGIGVPGIGVPGIGVPGIGVPGIGVPGIGVPGIGVPGIGVPGIGVPGIGVPGIGVPGIGVPGIGVPGIGVPGIGVPGIGVPGIGVPGIGVPGIGY
notes: assembles into nanoparticles
Consider B1, for which the “Transition Temperature T1” value was 19.5 °C in data set [1] and “around 19.5 °C” in data set [1] (listed as Knob-S48148). This molecule also yielded a Critical aggregation temperature in data set [1] (optical density at 350 nm by UV-Vis spectrophotometer) of 19.5 °C. For the same molecule, the “Transition Temperature T2” value in data set [1] is 60 °C; in data set [1] (listed as Knob-S48148), “around 60 °C”. Further, the “cellular uptake / fluorescence localisation” value in data set [2] is recorded as “significant cellular uptake”. The “retention in lacrimal gland (accumulation, surface association, internalization)” value in the data set with LG of BALB/c mice was “stronger apical-membrane/luminal accumulation, surface association, and internalization”. Besides, in data set [3], the “intracellular knob-S48I48 fluorescence after anti-mouse CAR antibody pre-incubation” value is “reduced the intracellular punctate fluorescence”. Moreover, the “size by dynamic light scattering (BSA; unimers of the ELPs)” value in data set [4] (BSA stable from 10 to 37° C., ELPs as unimers below assembly temperature) was “around 4 nm”. In data set [4] (dynamic light scattering), the “critical nanoparticle temperature (CNT)” value is 19.5 °C. Besides, the “Hydrodynamic radius (nm) at 37° C.” value in data set [4] (dynamic light scattering, 25 μM in PBS, 37° C.) was 21.7 nm. In addition, in data set [4] (dynamic light scattering, self-assembled nanoparticles), the “hydrodynamic diameter of nanoparticles” value is given as “around 40 nm”. In data set [5], the “transcytosis with overexpressed mCherry myosin Vb tail” value is recorded as “significantly reduce the transcytosis”.
